Starred links: 1 amine or outer side, 2 acyl side, 3 side chain; linkers in the order of their positions; H or OH if unused. Non-standard residues stand in square brackets, D forms with d. Groups on a side chain read outwards from the residue. No end group written: not given here. *: point of attachment. dpeg = —[CO(CH2)O(CH2)2O(CH2)NH]— spacer, O=C(COCCOCN[*:1])[*:2]; C20 diacid = O=C(O)CCCCCCCCCCCCCCCCCCC(=O)*; γGlu = O=C(O)[C@H](CCC(=O)[*:2])N[*:1]
T1: NPY5R
T1 sequence (Q15761 1-445, species assumed, looked up): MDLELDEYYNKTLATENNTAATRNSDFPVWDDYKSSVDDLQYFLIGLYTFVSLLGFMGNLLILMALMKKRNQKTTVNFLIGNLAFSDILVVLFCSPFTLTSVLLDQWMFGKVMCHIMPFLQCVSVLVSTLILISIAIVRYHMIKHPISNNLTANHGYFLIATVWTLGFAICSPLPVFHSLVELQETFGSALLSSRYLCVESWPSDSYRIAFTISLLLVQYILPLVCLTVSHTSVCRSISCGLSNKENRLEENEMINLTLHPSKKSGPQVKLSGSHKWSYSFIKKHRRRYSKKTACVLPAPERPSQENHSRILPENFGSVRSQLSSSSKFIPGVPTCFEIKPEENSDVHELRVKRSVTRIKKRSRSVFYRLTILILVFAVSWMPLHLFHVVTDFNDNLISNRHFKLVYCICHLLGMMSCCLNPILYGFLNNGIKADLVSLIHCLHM

T2: NPY2R
T2 sequence (P49146 1-381, species assumed, looked up): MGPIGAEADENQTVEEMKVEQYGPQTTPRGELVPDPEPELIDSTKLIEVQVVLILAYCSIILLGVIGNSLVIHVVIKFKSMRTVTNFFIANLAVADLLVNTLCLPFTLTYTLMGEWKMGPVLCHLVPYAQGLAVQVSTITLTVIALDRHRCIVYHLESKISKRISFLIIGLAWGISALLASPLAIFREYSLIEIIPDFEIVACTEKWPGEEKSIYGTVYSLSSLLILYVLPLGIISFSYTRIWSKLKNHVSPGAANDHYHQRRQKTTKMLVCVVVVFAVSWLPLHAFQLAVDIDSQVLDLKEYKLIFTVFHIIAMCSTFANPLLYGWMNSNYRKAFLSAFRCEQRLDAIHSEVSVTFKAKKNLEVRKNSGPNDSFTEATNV


What was measured:
NPY5R = target: T1, NPY5R; experiment: cell-based or functional assay
NPY2R = target: T2, NPY2R; experiment: cell-based or functional assay

Row | NPY5R pEC50 (NPY5R) | NPY2R pEC50 (NPY2R) | Binder
1 | 9 -Log(EC50, M) | 10.9 -Log(EC50, M) | PKPEKPGEDASPKEWNRYYK([γGlu-γGlu-C20 diacid])DLRHYLNWLTRQRF-NH2 (N-terminus assumed; SMILES CC(C)C[C@H](NC(=O)[C@H](CC(=O)O)NC(=O)[C@H](CCCCNC(=O)CC[C@H](NC(=O)CC[C@H](NC(=O)CCCCCCCCCCCCCCCCCCC(=O)O)C(=O)O)C(=O)O)NC(=O)[C@H](Cc1ccc(O)cc1)NC(=O)[C@H](Cc1ccc(O)cc1)NC(=O)[C@H](CCCNC(=N)N)NC(=O)[C@H](CC(N)=O)NC(=O)[C@H](Cc1c[nH]c2ccccc12)NC(=O)[C@H](CCC(=O)O)NC(=O)[C@H](CCCCN)NC(=O)[C@@H]1CCCN1C(=O)[C@H](CO)NC(=O)[C@H](C)NC(=O)[C@H](CC(=O)O)NC(=O)[C@H](CCC(=O)O)NC(=O)CNC(=O)[C@@H]1CCCN1C(=O)[C@H](CCCCN)NC(=O)[C@H](CCC(=O)O)NC(=O)[C@@H]1CCCN1C(=O)[C@H](CCCCN)NC(=O)[C@@H]1CCCN1)C(=O)N[C@@H](CCCNC(=N)N)C(=O)N[C@@H](Cc1c[nH]cn1)C(=O)N[C@@H](Cc1ccc(O)cc1)C(=O)N[C@@H](CC(C)C)C(=O)N[C@@H](CC(N)=O)C(=O)N[C@@H](Cc1c[nH]c2ccccc12)C(=O)N[C@@H](CC(C)C)C(=O)N[C@H](C(=O)N[C@@H](CCCNC(=N)N)C(=O)N[C@@H](CCC(N)=O)C(=O)N[C@@H](CCCNC(=N)N)C(=O)N[C@@H](Cc1ccccc1)C(N)=O)[C@@H](C)O) [Compound A29]
2 | 8.8 -Log(EC50, M) | 10.5 -Log(EC50, M) | PKPEKPGKDASPKEWNRYYK([γGlu-γGlu-C20 diacid])DLRHYLNWLTRQRF-NH2 (N-terminus assumed; SMILES CC(C)C[C@H](NC(=O)[C@H](CC(=O)O)NC(=O)[C@H](CCCCNC(=O)CC[C@H](NC(=O)CC[C@H](NC(=O)CCCCCCCCCCCCCCCCCCC(=O)O)C(=O)O)C(=O)O)NC(=O)[C@H](Cc1ccc(O)cc1)NC(=O)[C@H](Cc1ccc(O)cc1)NC(=O)[C@H](CCCNC(=N)N)NC(=O)[C@H](CC(N)=O)NC(=O)[C@H](Cc1c[nH]c2ccccc12)NC(=O)[C@H](CCC(=O)O)NC(=O)[C@H](CCCCN)NC(=O)[C@@H]1CCCN1C(=O)[C@H](CO)NC(=O)[C@H](C)NC(=O)[C@H](CC(=O)O)NC(=O)[C@H](CCCCN)NC(=O)CNC(=O)[C@@H]1CCCN1C(=O)[C@H](CCCCN)NC(=O)[C@H](CCC(=O)O)NC(=O)[C@@H]1CCCN1C(=O)[C@H](CCCCN)NC(=O)[C@@H]1CCCN1)C(=O)N[C@@H](CCCNC(=N)N)C(=O)N[C@@H](Cc1c[nH]cn1)C(=O)N[C@@H](Cc1ccc(O)cc1)C(=O)N[C@@H](CC(C)C)C(=O)N[C@@H](CC(N)=O)C(=O)N[C@@H](Cc1c[nH]c2ccccc12)C(=O)N[C@@H](CC(C)C)C(=O)N[C@H](C(=O)N[C@@H](CCCNC(=N)N)C(=O)N[C@@H](CCC(N)=O)C(=O)N[C@@H](CCCNC(=N)N)C(=O)N[C@@H](Cc1ccccc1)C(N)=O)[C@@H](C)O) [Compound A28]
3 | 9.3 -Log(EC50, M) | 10.3 -Log(EC50, M) | PKPEAPG[dK]([γGlu-dpeg-dpeg-γGlu-C20 diacid])DASPEEWNRYYADLRHYLNWLTRQRF-NH2 (N-terminus assumed; SMILES CC(C)C[C@H](NC(=O)[C@H](CC(=O)O)NC(=O)[C@H](C)NC(=O)[C@H](Cc1ccc(O)cc1)NC(=O)[C@H](Cc1ccc(O)cc1)NC(=O)[C@H](CCCNC(=N)N)NC(=O)[C@H](CC(N)=O)NC(=O)[C@H](Cc1c[nH]c2ccccc12)NC(=O)[C@H](CCC(=O)O)NC(=O)[C@H](CCC(=O)O)NC(=O)[C@@H]1CCCN1C(=O)[C@H](CO)NC(=O)[C@H](C)NC(=O)[C@H](CC(=O)O)NC(=O)[C@@H](CCCCNC(=O)CC[C@H](NC(=O)COCCOCNC(=O)COCCOCNC(=O)CC[C@H](NC(=O)CCCCCCCCCCCCCCCCCCC(=O)O)C(=O)O)C(=O)O)NC(=O)CNC(=O)[C@@H]1CCCN1C(=O)[C@H](C)NC(=O)[C@H](CCC(=O)O)NC(=O)[C@@H]1CCCN1C(=O)[C@H](CCCCN)NC(=O)[C@@H]1CCCN1)C(=O)N[C@@H](CCCNC(=N)N)C(=O)N[C@@H](Cc1c[nH]cn1)C(=O)N[C@@H](Cc1ccc(O)cc1)C(=O)N[C@@H](CC(C)C)C(=O)N[C@@H](CC(N)=O)C(=O)N[C@@H](Cc1c[nH]c2ccccc12)C(=O)N[C@@H](CC(C)C)C(=O)N[C@H](C(=O)N[C@@H](CCCNC(=N)N)C(=O)N[C@@H](CCC(N)=O)C(=O)N[C@@H](CCCNC(=N)N)C(=O)N[C@@H](Cc1ccccc1)C(N)=O)[C@@H](C)O) [Compound A18]
4 | 8.7 -Log(EC50, M) | 10.2 -Log(EC50, M) | PKPEAPGK([γGlu-dpeg-dpeg-γGlu-C20 diacid])DASPEEWNRYYADLRHYLNWLTRQRF-NH2 (N-terminus assumed; SMILES CC(C)C[C@H](NC(=O)[C@H](CC(=O)O)NC(=O)[C@H](C)NC(=O)[C@H](Cc1ccc(O)cc1)NC(=O)[C@H](Cc1ccc(O)cc1)NC(=O)[C@H](CCCNC(=N)N)NC(=O)[C@H](CC(N)=O)NC(=O)[C@H](Cc1c[nH]c2ccccc12)NC(=O)[C@H](CCC(=O)O)NC(=O)[C@H](CCC(=O)O)NC(=O)[C@@H]1CCCN1C(=O)[C@H](CO)NC(=O)[C@H](C)NC(=O)[C@H](CC(=O)O)NC(=O)[C@H](CCCCNC(=O)CC[C@H](NC(=O)COCCOCNC(=O)COCCOCNC(=O)CC[C@H](NC(=O)CCCCCCCCCCCCCCCCCCC(=O)O)C(=O)O)C(=O)O)NC(=O)CNC(=O)[C@@H]1CCCN1C(=O)[C@H](C)NC(=O)[C@H](CCC(=O)O)NC(=O)[C@@H]1CCCN1C(=O)[C@H](CCCCN)NC(=O)[C@@H]1CCCN1)C(=O)N[C@@H](CCCNC(=N)N)C(=O)N[C@@H](Cc1c[nH]cn1)C(=O)N[C@@H](Cc1ccc(O)cc1)C(=O)N[C@@H](CC(C)C)C(=O)N[C@@H](CC(N)=O)C(=O)N[C@@H](Cc1c[nH]c2ccccc12)C(=O)N[C@@H](CC(C)C)C(=O)N[C@H](C(=O)N[C@@H](CCCNC(=N)N)C(=O)N[C@@H](CCC(N)=O)C(=O)N[C@@H](CCCNC(=N)N)C(=O)N[C@@H](Cc1ccccc1)C(N)=O)[C@@H](C)O) [Compound A17]
5 | 8.9 -Log(EC50, M) | 10.7 -Log(EC50, M) | PKPEKPGK([γGlu-γGlu-C20 diacid])DASPKEWNRYYKDLRHYLNWLTRQRF-NH2 (N-terminus assumed; SMILES CC(C)C[C@H](NC(=O)[C@H](CC(=O)O)NC(=O)[C@H](CCCCN)NC(=O)[C@H](Cc1ccc(O)cc1)NC(=O)[C@H](Cc1ccc(O)cc1)NC(=O)[C@H](CCCNC(=N)N)NC(=O)[C@H](CC(N)=O)NC(=O)[C@H](Cc1c[nH]c2ccccc12)NC(=O)[C@H](CCC(=O)O)NC(=O)[C@H](CCCCN)NC(=O)[C@@H]1CCCN1C(=O)[C@H](CO)NC(=O)[C@H](C)NC(=O)[C@H](CC(=O)O)NC(=O)[C@H](CCCCNC(=O)CC[C@H](NC(=O)CC[C@H](NC(=O)CCCCCCCCCCCCCCCCCCC(=O)O)C(=O)O)C(=O)O)NC(=O)CNC(=O)[C@@H]1CCCN1C(=O)[C@H](CCCCN)NC(=O)[C@H](CCC(=O)O)NC(=O)[C@@H]1CCCN1C(=O)[C@H](CCCCN)NC(=O)[C@@H]1CCCN1)C(=O)N[C@@H](CCCNC(=N)N)C(=O)N[C@@H](Cc1c[nH]cn1)C(=O)N[C@@H](Cc1ccc(O)cc1)C(=O)N[C@@H](CC(C)C)C(=O)N[C@@H](CC(N)=O)C(=O)N[C@@H](Cc1c[nH]c2ccccc12)C(=O)N[C@@H](CC(C)C)C(=O)N[C@H](C(=O)N[C@@H](CCCNC(=N)N)C(=O)N[C@@H](CCC(N)=O)C(=O)N[C@@H](CCCNC(=N)N)C(=O)N[C@@H](Cc1ccccc1)C(N)=O)[C@@H](C)O) [Compound A27]

Source: US20250084142A1 (INTARCIA THERAPEUTICS, published 2025)
